Like-named read-outs stand apart in the source and are kept apart here.
Legend:
HeLa = settings: cited from earlier work
smooth muscle cell = settings: Frew et al. 2008; cited from earlier work
mice = settings: i.p.; cited from earlier work
L1210 = settings: Kobayashi et al. 1994; cited from earlier work
HeLa cells = experiment: Cytotoxicity of SOR, Cell Counting Kit-8 (WST-8); type: cell-based, human; settings: ratio of cytotoxicity, HeLa versus L1210
Protocol: The cytotoxicity of SOR was evaluated using L1210 (RBRC-RCB2844, Riken) and HeLa (RBRC-RCB0007, Riken) cells. RPMI1640 medium supplemented with 10% FBS was used for the L1210 cells, and EMEM supplemented with 10% FBS was used for the HeLa cells. The cells were precultured for 3 days (L1210) or 7 days (HeLa) using a CO2 incubator (37° C., 5% CO2). […]. SOR dissolved in a medium (200 μg/mL) was filtered ([…]), and serially diluted 2-fold, and the diluted products were added to wells in an amount of 10 μL/well such that the final concentration of SOR was 50 to 0.024 μg/mL. The cells of each line were incubated for 48 hours, and the growth of the cells was quantified using Cell Counting Kit-8 (Dojindo Laboratories Co., Ltd.) based on the WST-8 method according to manufacturer's protocol. Absorption at 450 nm was measured using a microplate reader, and a mean of triplicate data was plotted to prepare a concentration-response curve, followed by analysis using Prism software. […].

Aplysia kurodai eggs = experiment: Toxicity in Aplysia kurodai egg (influence on cleavage and development); type: in vivo
Protocol: Eggs were taken out of a newly deposited egg mass of Aplysia kurodai, and influence on cleavage was examined using the collected eggs. Eggs were taken out of the egg mass in artificial seawater (ASW) and gently centrifuged by hand centrifuge apparatus. The precipitated eggs were rinsed with ASW twice. Filtered natural seawater was added to a 24-well plate (2 mL/well), to which SOR (10 μL/well) and subsequently the liquid containing the eggs (20 μL/well) were added. Then, egg development was observed under microscope every few hours. […] Untreated control eggs underwent the second cleavage 6 hours after fertilization and developed into morula in 24 hours; […].

mice (ddY, male) = type: in vivo; settings: i.c.v.
Protocol: Toxicity in mice was assessed by intracerebroventricularly injecting varying concentrations of SOR to mice (ddY, male, 3 to 4 weeks old, Japan SLC, Inc.) (Sakai et al., J Pharmacol Exp Ther. 2001; 296(2):650-8). […] […].

Plasmid DNA (pTAC-1) = experiment: Cleavage of DNA by natural SOR, agarose electrophoresis; type: biochemical; settings: SOR 8.8 μg/mL, with or without EDTA 12.5 mM, room temperature, 24 hours
Protocol: Plasmid DNA (pTAC-1, 4 ng, BioDynamics Laboratory, Inc.), or the plasmid DNA and EDTA (12.5 mM) were added to and mixed with a hydrophobic interaction chromatography fraction containing SOR (8.8 μg/mL) or a Tris-HCl buffer (pH 8.3) containing 0.1 M NaCl. The mixture was left at room temperature for 24 hours, separated by agarose electrophoresis, stained with ethidium bromide (15 min), and subsequently observed under UV light (260 nm). Thermo scientific GeneRuler 1 kb DNA Ladder (Thermo Fisher Scientific Inc.) was used as a marker.

[1] = tested on: HeLa cells (derived from human uterine cervix cancer); experiment: Intracellular translocation into HeLa cell, confocal laser microscope; type: cell-based; settings: overall conclusion
Protocol: Whether SOR could translocate into cells and further into the nuclei was studied using fluorescently labeled SOR. […] Also, BSA labeled with FITC in the same manner as above was used as a control.
The same experiment as in the section (1) was also conducted for HeLa cells (derived from human uterine cervix cancer). A HeLa suspension prepared at approximately 2.2×10^4 cells/mL was added at 270 μL/well to 8-well chamber cover glass (Eppendorf) to make approximately 6.0×10^3 cells/well, followed by preculture at 37° C. for 24 hours in a 5% CO2 incubator. […] The cells thus supplemented with the sample was subjected to fixing and permeabilization treatment over each time period from 30 minutes to 16 hours, and stained with DAPI. Then, a mount was prepared.

[2] = Isoelectric point by two-dimensional polyacrylamide gel electrophoresis (2-DE); type: physicochemical; settings: IPG Strip 3-6
Protocol: Next, the isoelectric point of SOR was determined by two-dimensional polyacrylamide gel electrophoresis (2-DE). First, 443 μg of a sample was mixed with a rehydration solution (8 M urea, 0.5% 3-[(3-cholamidopropyl)dimethylammonio]-prop anesulfonic acid (CHAPS), 0.5% Bio-Lyte 3/10 (Bio-Rad Laboratories, Inc.), 0.2% dithiothreitol, 0.002% bromophenol blue). The obtained solution was applied to IPG Strip 3-6 (Bio-Rad Laboratories, Inc.). Isoelectric focusing electrophoresis was performed at 20° C. as follows: rehydration for 12 hours, 300 V for 30 minutes, 1000 V for 30 minutes, and 5000 V for 2 hours. After electrophoresis, the strip was equilibrated for 15 minutes with shaking in 2% SDS, 50 mM Tris-HCl, pH 8.8, 6 M urea, 30% glycerol, and 0.25% DTT. Subsequently, the strip was re-equilibrated for 15 minutes with shaking in 2% SDS, 50 mM Tris-HCl, pH 8.8, 6 M urea, 30% glycerol, and 4.5% iodoacetamide. The strip was put on a 12% polyacrylamide gel, and the second electrophoresis was performed in the same manner as in SDS-PAGE. The gel was stained with a silver staining kit (Wako Pure Chemical Industries, Ltd.).

CC(=O)O[C@H]1C(=O)[C@@]2(C)[C@H]([C@H](OC(=O)c3ccccc3)[C@]3(O)C[C@H](OC(=O)[C@H](O)[C@@H](NC(=O)c4ccccc4)c4ccccc4)C(C)=C1C3(C)C)[C@]1(OC(C)=O)CO[C@@H]1C[C@@H]2O [Paclitaxel]
IC50 (HeLa; Liebmann et al. 1993): 2.6 nM

C=CC[C@H](C)[C@H](C)C[C@@H](O)[C@H](O)[C@@H]1CC[C@@]2(C)O[C@@]3(C)C[C@@]4(C)O[C@H]5/C=C\C[C@H]6O[C@H]7C[C@H]8O[C@H]9C[C@@]%10(C)O[C@@](C)([C@@H]%11CC[C@H]%12O[C@@]%13(C)C[C@H]%14O[C@@]%15(C)C[C@H]%16O[C@@]%17(C)C[C@@H](O)[C@H]([C@@H]%18O[C@H]%19[C@H](O)[C@@H](O)[C@H](C[C@H](O)C[C@@H](O)[C@@H]%20O[C@H]%21[C@H](O)[C@@H](O)[C@H]([C@@H]%22O[C@@H]%23[C@H](O)[C@H]%24O[C@H]%25C[C@H]%26O[C@@H](C[C@H](O)[C@@H](O)[C@H]%27O[C@H]%28[C@H](O)[C@H]%29O[C@H]%30C[C@H]%31O[C@H]%32[C@@H](O)[C@@H](O)[C@H]([C@H](C)[C@H](O)[C@H](C)CC[C@H](OS(=O)(=O)[O-])[C@H](O)[C@H](C)C[C@@H](O)C(=C)/C(C)=C/CO)O[C@@H]%32[C@H](O)C[C@]%31(C)O[C@@H]%30C[C@]%29(C)O[C@@H]%28C[C@H]%27O)[C@H](OS(=O)(=O)[O-])[C@H](O)[C@@H]%26O[C@@H]%25C[C@@H]%24O[C@H]%23[C@H](O)[C@H]%22O)O[C@H]%21C[C@H]%20O)O[C@H]%19C[C@H]%18O)O[C@@H]%17[C@H](O)[C@]%16(C)O[C@@H]%15CC[C@]%14(C)O[C@@H]%13C[C@@H]%12O%11)[C@H](O)C[C@@H]%10O[C@]9(C)CC[C@]8(C)O[C@]7(C)C[C@@H]6O[C@@H]5C[C@@H]4O[C@@H]3C[C@@H]2O1.[Na+].[Na+] [Maito toxin]
IC50 (smooth muscle cell): ~0.058 nM | Lethal dose (mice): 37.9 pmol/kg

CO[C@H]1C[C@H](CC[C@H](C)[C@H](O)[C@H](C)[C@H]2OC(=O)/C=C/C(C)=C/C[C@H](O)C[C@@H]3C=CC[C@@H](C[C@H](OC)[C@@H](C)[C@@H](O)C[C@@H](O)[C@H](C)[C@@H]([C@@H](C)[C@@H](O)[C@@H](C)CC[C@H]4C[C@H](OC)C[C@H](C)O4)OC(=O)/C=C/C(C)=C/C[C@H](O)C[C@@H]4C=CC[C@@H](C[C@H](OC)[C@@H](C)[C@@H](O)C[C@@H](O)[C@@H]2C)O4)O3)O[C@@H](C)C1 [Swinholide A]
IC50 (L1210): 22 nM

C=C1[C@@H](C)[C@H]2[C@H](Cc3ccccc3)NC(=O)[C@]23[C@H](OC(C)=O)/C=C/[C@@](C)(O)C(=O)[C@@H](C)C/C=C/[C@H]3[C@@H]1O [Cytochalasin D]
IC50 (HeLa; Miranda et al. 1974): 100 nM

B1: soritesidine (protein)
chain: HFSLKRQDSSITHQTVSIFCITILLLSVSAYFPNSIPEAQAKLGDQRQIDIASWNTFDFGGKFGGVCKANDPTILQAMTDVISQHDVILVQEIANVTNPCNPANIFSGFNNLCSNNYLGGLGYLCQDTGIVGSGEGYGIIYKNNTGIGNVVIERTDNPNTVPYIPAGGGNNQMKRPPMKATLDFNAGAFNVVVYNAHTSPSGGVPKEIKLLSDRISPAHNPLDKNAVITLGDLNADGKRRLPNGQLDHGTDYYRGGFAAHPNDFPVSGWQQTVTDTDVTNFAQTLRAYDRMILSNATHNSYDEYGIIGGIPNPLPYPGGVYPAGTLFKNVHTGGGNTGKALSDHRLIWSKLNYGAIETTDNNGNTKSNFVEFTNPPQCTAPDTVYAKGADFVPNRTVDIYITKQPDNQNFIPLPQPQNPTNPGQFKQVGESYQLTDVRTTGKSTHNIDANGNIANTAVWVQPTPNQQYNLIVDVDRDGYFTNSIDIVDAFNTQGFDVDPCLRKRLAASLSDGIPAGDGTRDFVKPPKIFISGDWFPQGSARIYIIIYDKNFDYNGNDSKVLTDVRGTYDTITVGENHKFTGLEWSSPHVGNYNIIFDANSDGVYKKSDGDIVDHINEIGFAMLESYPHHSHIVDLDDNANQREDFNSGIAKNVYVLATNLPNPSTIVDVYVISEKLLKLNNPGWTTWQQSSNVPLKESAAPTNNGDRLHPTWVTPQKTVFGSVWHMPGDTFDPPYINYYGKKFTIVIDVNRDGKYDPSIDMVDTHDIGDMTDWFITQGHHDLSPTSGNGQPAVSEYKEYLNSKLDLENPLDNTNNYDAATEAASAQYLCRTNLPINLFENVIELGAQTGFIMFNPDEYYAGRDLNSGRHIYDAVDFDGLEINDGYTSVISAKEMTLNRLGVGQNSNLLTCGADTVTIDGMSTQKDSTTNIVAKTISHKSNISLEADTCTHYTHNLYFESDTNILVKAIESPFAWIIDVGDRILPGTGC
selectivity for the HeLa cells over the L1210 cells (HeLa cells): approximately 200 times | influence on egg cleavage and development (Aplysia kurodai eggs; SOR 1.3 ng/mL): overall shape of the cells was shrunken and bubble-like protrusions on the cell surface were often observed, though development progressed | influence on egg cleavage and development (Aplysia kurodai eggs; SOR 1.3 μg/mL, 24 hours): only two blastomeres were observed even 24 hours later | influence on the morphology of the eggs (Aplysia kurodai eggs; varying SOR concentrations): concentration-dependent influence on the morphology of the eggs | Lethal dose (mice (ddY, male)): 1.60 pmol/kg | acute toxicity (mice (ddY, male)): no acute toxicity was observed | dosage causing lethal toxicity (mice (ddY, male)): 5.74 ng/mouse | time to death (mice (ddY, male); 574 ng of SOR): 18 h | time to loss of normal posture (mice (ddY, male); 574 ng of SOR): 17 h | time to loss of voluntary movement (mice (ddY, male); 574 ng of SOR): 14 h | eye observation after administration (mice (ddY, male); 14 hours or later after administration): Reddish ring around eyes was observed | cleavage of DNA (Plasmid DNA (pTAC-1)): cleaved DNA in a metal ion-dependent manner | intracellular translocation [1]: intracellular translocation of SOR was confirmed | isoelectric point (pI) [2]: approximately 4.5

— patent publication US20230242598A1, “FUNCTIONAL POLYPEPTIDES AND USE THEREOF” (priority 2020, published 2023)
